Laboratory results as given in the supplement of paper PMC9112550, “Optimization of the antimicrobial peptide Bac7 by deep mutational scanning” (BMC Biology, 2022).

Test system: Escherichia coli TOP10
Experiment: shrunken log2 fold change of peptide-encoding DNA abundance (4.5 h post-induction vs induction); higher = less antimicrobial activity (less host growth inhibition)
Conditions: time post-induction: 4.5 h; library: site-saturation at positions 5, 18, 19, 20
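Further: peptides expressed intracellularly from a pBAD plasmid library in pooled LB shake-flask culture, induced with 0.3% L-arabinose, DNA abundance read by NGS, three biological replicates, DESeq2 with apeglm shrinkage.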

| Sequence | shrunken log2 fold change |
| --- | --- |
| RRIRSRPPRLPRPRPRPFASPRP | 0.0202 |
| RRIRLRPPRLPRPRPRPIQKPRP | 0.0625 |
| RRIRKRPPRLPRPRPRPQFDPRP | -0.0088 |
| RRIRPRPPRLPRPRPRPYKAPRP | -0.183 |
| RRIRVRPPRLPRPRPRPSDSPRP | -0.4 |
| RRIRERPPRLPRPRPRPLLMPRP | 0.0107 |
| RRIRTRPPRLPRPRPRPKWQPRP | 0.0171 |
| RRIRFRPPRLPRPRPRPSSMPRP | -0.965 |
| RRIRNRPPRLPRPRPRPAYHPRP | -0.385 |
| RRIRARPPRLPRPRPRPDNDPRP | -0.196 |
| RRIRRRPPRLPRPRPRPECQPRP | 0.253 |
| RRIRSRPPRLPRPRPRPSPDPRP | -0.218 |
| RRIRNRPPRLPRPRPRPVTPPRP | 0.0444 |
| RRIRQRPPRLPRPRPRPWWVPRP | -0.0321 |
| RRIRDRPPRLPRPRPRPKRRPRP | 0.529 |
| RRIRERPPRLPRPRPRPSLLPRP | -0.208 |
| RRIRMRPPRLPRPRPRPKHMPRP | 0.171 |
| RRIRCRPPRLPRPRPRPYRAPRP | -0.383 |
| RRIRTRPPRLPRPRPRPHEMPRP | 0.0124 |
| RRIRRRPPRLPRPRPRPWWAPRP | 0.0813 |
| RRIRTRPPRLPRPRPRPVGFPRP | -0.225 |
| RRIRSRPPRLPRPRPRPVIHPRP | -0.127 |
| RRIRWRPPRLPRPRPRPPWEPRP | 0.541 |
| RRIRTRPPRLPRPRPRPHKMPRP | -0.0381 |
| RRIRSRPPRLPRPRPRPNRQPRP | -0.403 |

| Sequence | shrunken log2 fold change |
| --- | --- |
| RRIRKRPPRLPRPRPRPQYRPRP | -0.185 |
| RRIRVRPPRLPRPRPRPRGKPRP | 0.252 |
| RRIRARPPRLPRPRPRPSCAPRP | 0.689 |
| RRIRARPPRLPRPRPRPVENPRP | 0.25 |
| RRIRCRPPRLPRPRPRPLLIPRP | -0.4 |
| RRIRDRPPRLPRPRPRPVMWPRP | 0.783 |
| RRIRNRPPRLPRPRPRPWMPPRP | -0.105 |
| RRIRRRPPRLPRPRPRPYYIPRP | -0.584 |
| RRIRNRPPRLPRPRPRPFGSPRP | -0.0105 |
| RRIRWRPPRLPRPRPRPWYEPRP | 0.0012 |
| RRIRCRPPRLPRPRPRPEDEPRP | 0.076 |
| RRIRSRPPRLPRPRPRPCPFPRP | -0.138 |
| RRIRLRPPRLPRPRPRPIIEPRP | -0.171 |
| RRIRVRPPRLPRPRPRPKMMPRP | -0.313 |
| RRIRCRPPRLPRPRPRPGYTPRP | 0.00337 |
| RRIRQRPPRLPRPRPRPSLFPRP | -0.11 |
| RRIRYRPPRLPRPRPRPEISPRP | -0.00407 |
| RRIRTRPPRLPRPRPRPNVLPRP | -0.0117 |
| RRIRMRPPRLPRPRPRPMGNPRP | 0.451 |
| RRIRARPPRLPRPRPRPWFTPRP | -0.316 |
| RRIRMRPPRLPRPRPRPHEPPRP | -0.0151 |
| RRIRCRPPRLPRPRPRPGWGPRP | 0.42 |
| RRIRNRPPRLPRPRPRPRFVPRP | -0.384 |
| RRIRYRPPRLPRPRPRPLYEPRP | -0.562 |
| RRIRVRPPRLPRPRPRPGKKPRP | 0.0628 |

| Sequence | shrunken log2 fold change |
| --- | --- |
| RRIRMRPPRLPRPRPRPPHIPRP | -0.0498 |
| RRIRPRPPRLPRPRPRPFDHPRP | -0.105 |
| RRIRHRPPRLPRPRPRPCYFPRP | -0.117 |
| RRIRYRPPRLPRPRPRPQPIPRP | -0.397 |
| RRIRCRPPRLPRPRPRPRLWPRP | 1.01 |
| RRIRTRPPRLPRPRPRPAGHPRP | -0.0189 |
| RRIRSRPPRLPRPRPRPAANPRP | 0.403 |
| RRIRLRPPRLPRPRPRPIGPPRP | 0.0835 |
| RRIRHRPPRLPRPRPRPMNYPRP | -0.316 |
| RRIRNRPPRLPRPRPRPNEVPRP | -0.0252 |
| RRIRLRPPRLPRPRPRPNFFPRP | 0.247 |
| RRIRYRPPRLPRPRPRPVLDPRP | -0.265 |
| RRIRPRPPRLPRPRPRPSGDPRP | 0.14 |
| RRIRGRPPRLPRPRPRPYHAPRP | 0.142 |
| RRIRMRPPRLPRPRPRPDSQPRP | 1.35 |
| RRIRSRPPRLPRPRPRPLGWPRP | 0.76 |
| RRIRHRPPRLPRPRPRPCYLPRP | -0.897 |
| RRIRNRPPRLPRPRPRPEWTPRP | -0.0178 |
| RRIRGRPPRLPRPRPRPWIKPRP | -0.0249 |
| RRIRQRPPRLPRPRPRPARKPRP | 0.0862 |
| RRIRSRPPRLPRPRPRPSFFPRP | -0.211 |
| RRIRARPPRLPRPRPRPCDGPRP | 0.146 |
| RRIRSRPPRLPRPRPRPDGTPRP | -0.199 |
| RRIRTRPPRLPRPRPRPVNDPRP | 0.0249 |
| RRIRERPPRLPRPRPRPFQNPRP | 0.02 |

| Sequence | shrunken log2 fold change |
| --- | --- |
| RRIRCRPPRLPRPRPRPENHPRP | -0.415 |
| RRIRCRPPRLPRPRPRPYALPRP | -0.115 |
| RRIRTRPPRLPRPRPRPAARPRP | 0.374 |
| RRIRVRPPRLPRPRPRPVTAPRP | -0.0594 |
| RRIRFRPPRLPRPRPRPNRRPRP | 0.048 |
| RRIRCRPPRLPRPRPRPCSTPRP | -0.245 |
| RRIRYRPPRLPRPRPRPEVFPRP | -0.0536 |
| RRIRPRPPRLPRPRPRPWLGPRP | 0.256 |
| RRIRSRPPRLPRPRPRPHWWPRP | 0.359 |
| RRIRMRPPRLPRPRPRPAMHPRP | 2.86 |
| RRIRCRPPRLPRPRPRPVITPRP | -0.496 |
| RRIRCRPPRLPRPRPRPMASPRP | -0.00968 |
| RRIRQRPPRLPRPRPRPDCHPRP | -0.0897 |
| RRIRYRPPRLPRPRPRPGMQPRP | -0.224 |
| RRIRFRPPRLPRPRPRPQIIPRP | -0.149 |
| RRIRMRPPRLPRPRPRPGAEPRP | 3.05 |
| RRIRIRPPRLPRPRPRPCAYPRP | -0.0396 |
| RRIRGRPPRLPRPRPRPKRIPRP | 0.147 |
| RRIRPRPPRLPRPRPRPHESPRP | 0.0891 |
| RRIRQRPPRLPRPRPRPTSAPRP | 0.257 |
| RRIRWRPPRLPRPRPRPYNWPRP | -1.06 |
| RRIRHRPPRLPRPRPRPQIQPRP | -0.0515 |
| RRIRVRPPRLPRPRPRPNNCPRP | -0.0726 |
| RRIRCRPPRLPRPRPRPWTIPRP | -0.0777 |
| RRIRIRPPRLPRPRPRPHKVPRP | -0.0742 |

| Sequence | shrunken log2 fold change |
| --- | --- |
| RRIRQRPPRLPRPRPRPLNDPRP | -0.277 |
| RRIRPRPPRLPRPRPRPMMWPRP | 0.0433 |
| RRIRNRPPRLPRPRPRPKIFPRP | 0.19 |
| RRIRGRPPRLPRPRPRPMDKPRP | 0.378 |
| RRIRTRPPRLPRPRPRPPQYPRP | -0.108 |
| RRIRERPPRLPRPRPRPATGPRP | -0.0619 |
| RRIRIRPPRLPRPRPRPPTGPRP | 0.209 |
| RRIRIRPPRLPRPRPRPGFQPRP | -0.106 |
| RRIRGRPPRLPRPRPRPGYGPRP | -0.0363 |
| RRIRDRPPRLPRPRPRPMRTPRP | 0.519 |
| RRIRYRPPRLPRPRPRPLVIPRP | -0.782 |
| RRIRIRPPRLPRPRPRPWHCPRP | -0.0926 |
| RRIRHRPPRLPRPRPRPGWPPRP | 0.424 |
| RRIRNRPPRLPRPRPRPYIKPRP | -1.03 |
| RRIRARPPRLPRPRPRPTGLPRP | 0.298 |
| RRIRRRPPRLPRPRPRPVFVPRP | 0.292 |
| RRIRFRPPRLPRPRPRPQGTPRP | -0.068 |
| RRIRLRPPRLPRPRPRPMPRPRP | 0.291 |
| RRIRHRPPRLPRPRPRPHALPRP | 0.0244 |
| RRIRFRPPRLPRPRPRPGEDPRP | -0.224 |
| RRIRERPPRLPRPRPRPEQNPRP | 0.139 |
| RRIRCRPPRLPRPRPRPAQKPRP | -0.118 |
| RRIRYRPPRLPRPRPRPKFDPRP | -0.138 |
| RRIRKRPPRLPRPRPRPLGKPRP | 0.39 |
| RRIRNRPPRLPRPRPRPKRWPRP | 0.0633 |

| Sequence | shrunken log2 fold change |
| --- | --- |
| RRIRRRPPRLPRPRPRPPEQPRP | 0.033 |
| RRIRIRPPRLPRPRPRPNSEPRP | -0.686 |
| RRIRARPPRLPRPRPRPSFQPRP | -0.0185 |
| RRIRLRPPRLPRPRPRPWNWPRP | 0.0524 |
| RRIRRRPPRLPRPRPRPHVIPRP | -0.0937 |
| RRIRIRPPRLPRPRPRPLFDPRP | -0.803 |
| RRIRQRPPRLPRPRPRPWSCPRP | -0.462 |
| RRIRERPPRLPRPRPRPKLLPRP | 0.0473 |
| RRIRARPPRLPRPRPRPRLPPRP | 0.667 |
| RRIRPRPPRLPRPRPRPWKSPRP | 0.0643 |
| RRIRMRPPRLPRPRPRPIIWPRP | -0.0321 |
| RRIRERPPRLPRPRPRPEEPPRP | 0.139 |
| RRIRFRPPRLPRPRPRPYRNPRP | -0.00237 |
| RRIRMRPPRLPRPRPRPFHVPRP | -0.726 |
| RRIRPRPPRLPRPRPRPATWPRP | 0.253 |
| RRIRFRPPRLPRPRPRPGWHPRP | 0.277 |
| RRIRPRPPRLPRPRPRPATEPRP | 0.0977 |
| RRIRKRPPRLPRPRPRPGCPPRP | 0.0566 |
| RRIRGRPPRLPRPRPRPCAFPRP | 2.03 |
| RRIRIRPPRLPRPRPRPRPYPRP | -0.332 |
| RRIRGRPPRLPRPRPRPCGSPRP | 0.107 |
| RRIRHRPPRLPRPRPRPLSNPRP | -0.174 |
| RRIRNRPPRLPRPRPRPYHHPRP | -0.207 |
| RRIRGRPPRLPRPRPRPFMTPRP | 0.837 |
| RRIRNRPPRLPRPRPRPTIQPRP | -0.213 |
